Blank lines part the entries; values can stand above or below the binder they belong to. Numbered stars: 1 amine (or outer) side, 2 acyl side, 3 side chain; on linkers, the order of the positions; unused ones are H or OH. Side chains are listed from the residue outwards. Ends that are not written are not given here. * marks the point of attachment. C20 diacid = O=C(O)CCCCCCCCCCCCCCCCCCC(=O)*; C18 diacid = O=C(O)CCCCCCCCCCCCCCCCC(=O)*; C16 diacid = O=C(O)CCCCCCCCCCCCCCC(=O)*; γGlu = O=C(O)[C@H](CCC(=O)[*:2])N[*:1]; C14 diacid = O=C(O)CCCCCCCCCCCCC(=O)*; AEEA = NCCOCCOCC(=O)O
How the values were obtained:
[1] = target: rat calcitonin receptor (rat) (UniProt P32214); assay: SPA competition vs 125I-calcitonin, membranes with rat CTR (Assay VIII)
[2] = target: rat amylin receptor (rat calcitonin receptor with rat RAMP 3) (rat) (UniProt P32214); assay: SPA competition vs 125I-rat amylin, membranes with rat CTR + rat RAMP3 (Assay VI)

B1: [N-terminal(C16 diacid-gGlu), des1, 30S, 31G]mimylin (peptide)
peptide: {C16 diacid-γGlu}-ASELSTAALGRLSAELHELATLPRTETGSGSP-NH2
IC50 [1]: 13 pM
IC50 [2]: 22 pM

B2: [N-terminal(C18 diacid-gGlu), des1, 4G, 15Q, 21Q, 23Y, 30S, 31G, 32T, 33Y]mimylin (peptide)
peptide: {C18 diacid-γGlu}-ASGLSTAALGRLSQELHELQTYPRTETGSGTY-NH2
SMILES: CC(C)C[C@H](NC(=O)CNC(=O)[C@H](CO)NC(=O)[C@H](C)NC(=O)CC[C@H](NC(=O)CCCCCCCCCCCCCCCCC(=O)O)C(=O)O)C(=O)N[C@@H](CO)C(=O)N[C@H](C(=O)N[C@@H](C)C(=O)N[C@@H](C)C(=O)N[C@@H](CC(C)C)C(=O)NCC(=O)N[C@@H](CCCNC(=N)N)C(=O)N[C@@H](CC(C)C)C(=O)N[C@@H](CO)C(=O)N[C@@H](CCC(N)=O)C(=O)N[C@@H](CCC(=O)O)C(=O)N[C@@H](CC(C)C)C(=O)N[C@@H](Cc1c[nH]cn1)C(=O)N[C@@H](CCC(=O)O)C(=O)N[C@@H](CC(C)C)C(=O)N[C@@H](CCC(N)=O)C(=O)N[C@H](C(=O)N[C@@H](Cc1ccc(O)cc1)C(=O)N1CCC[C@H]1C(=O)N[C@@H](CCCNC(=N)N)C(=O)N[C@H](C(=O)N[C@@H](CCC(=O)O)C(=O)N[C@H](C(=O)NCC(=O)N[C@@H](CO)C(=O)NCC(=O)N[C@H](C(=O)N[C@@H](Cc1ccc(O)cc1)C(N)=O)[C@@H](C)O)[C@@H](C)O)[C@@H](C)O)[C@@H](C)O)[C@@H](C)O
IC50 [1]: 13 pM
IC50 [2]: 13 pM

B3: [N-terminal(C14 diacid-gGlu), des1, 30S, 31G]mimylin (peptide)
peptide: {C14 diacid-γGlu}-ASELSTAALGRLSAELHELATLPRTETGSGSP-NH2
IC50 [1]: 17 pM
IC50 [2]: 122 pM

B8: [N-terminal(C18 diacid), des1, 30S, 31G]mimylin (peptide)
peptide: {C18 diacid}-ASELSTAALGRLSAELHELATLPRTETGSGSP-NH2
IC50 [1]: 13 pM
IC50 [2]: 63 pM

B10: [N-terminal(C16 diacid), des1, 30S, 31G]mimylin (peptide)
peptide: {C16 diacid}-ASELSTAALGRLSAELHELATLPRTETGSGSP-NH2
IC50 [1]: 11 pM
IC50 [2]: 64 pM

The remaining lines, values ahead:

IC50 [1]: 16 pM
IC50 [2]: 53 pM
B4: [N-terminal(C20 diacid-gGlu), des1, 4G, 9V, 15Q, 21Q, 23Y, 30S, 31Q, 32T, 33Y]mimylin (peptide)
peptide: {C20 diacid-γGlu}-ASGLSTAVLGRLSQELHELQTYPRTETGSQTY-NH2
SMILES: CC(C)C[C@H](NC(=O)CNC(=O)[C@H](CO)NC(=O)[C@H](C)NC(=O)CC[C@H](NC(=O)CCCCCCCCCCCCCCCCCCC(=O)O)C(=O)O)C(=O)N[C@@H](CO)C(=O)N[C@H](C(=O)N[C@@H](C)C(=O)N[C@H](C(=O)N[C@@H](CC(C)C)C(=O)NCC(=O)N[C@@H](CCCNC(=N)N)C(=O)N[C@@H](CC(C)C)C(=O)N[C@@H](CO)C(=O)N[C@@H](CCC(N)=O)C(=O)N[C@@H](CCC(=O)O)C(=O)N[C@@H](CC(C)C)C(=O)N[C@@H](Cc1c[nH]cn1)C(=O)N[C@@H](CCC(=O)O)C(=O)N[C@@H](CC(C)C)C(=O)N[C@@H](CCC(N)=O)C(=O)N[C@H](C(=O)N[C@@H](Cc1ccc(O)cc1)C(=O)N1CCC[C@H]1C(=O)N[C@@H](CCCNC(=N)N)C(=O)N[C@H](C(=O)N[C@@H](CCC(=O)O)C(=O)N[C@H](C(=O)NCC(=O)N[C@@H](CO)C(=O)N[C@@H](CCC(N)=O)C(=O)N[C@H](C(=O)N[C@@H](Cc1ccc(O)cc1)C(N)=O)[C@@H](C)O)[C@@H](C)O)[C@@H](C)O)[C@@H](C)O)C(C)C)[C@@H](C)O

IC50 [1]: 44 pM
IC50 [2]: 455 pM
B5: [des1, 19K(C20 diacid-gGlu), 30S, 31G]mimylin (peptide)
peptide: ASELSTAALGRLSAELHK([γGlu-C20 diacid])LATLPRTETGSGSP-NH2
modifications: N-terminus assumed
SMILES: CC(C)C[C@H](NC(=O)[C@H](C)NC(=O)[C@H](C)NC(=O)[C@@H](NC(=O)[C@H](CO)NC(=O)[C@H](CC(C)C)NC(=O)[C@H](CCC(=O)O)NC(=O)[C@H](CO)NC(=O)[C@H](C)N)[C@@H](C)O)C(=O)NCC(=O)N[C@@H](CCCNC(=N)N)C(=O)N[C@@H](CC(C)C)C(=O)N[C@@H](CO)C(=O)N[C@@H](C)C(=O)N[C@@H](CCC(=O)O)C(=O)N[C@@H](CC(C)C)C(=O)N[C@@H](Cc1c[nH]cn1)C(=O)N[C@@H](CCCCNC(=O)CC[C@H](NC(=O)CCCCCCCCCCCCCCCCCCC(=O)O)C(=O)O)C(=O)N[C@@H](CC(C)C)C(=O)N[C@@H](C)C(=O)N[C@H](C(=O)N[C@@H](CC(C)C)C(=O)N1CCC[C@H]1C(=O)N[C@@H](CCCNC(=N)N)C(=O)N[C@H](C(=O)N[C@@H](CCC(=O)O)C(=O)N[C@H](C(=O)NCC(=O)N[C@@H](CO)C(=O)NCC(=O)N[C@@H](CO)C(=O)N1CCC[C@H]1C(N)=O)[C@@H](C)O)[C@@H](C)O)[C@@H](C)O

IC50 [1]: 246 pM
IC50 [2]: 385 pM
B6: [N-terminal(C20 diacid-gGlu), des1, 4G, 9V, 12K, 15Q, 21Q, 23Y, 25P, 30S, 31G, 32T, 33Y]mimylin (peptide)
peptide: {C20 diacid-γGlu}-ASGLSTAVLGKLSQELHELQTYPPTETGSGTY-NH2
SMILES: CC(C)C[C@H](NC(=O)CNC(=O)[C@H](CO)NC(=O)[C@H](C)NC(=O)CC[C@H](NC(=O)CCCCCCCCCCCCCCCCCCC(=O)O)C(=O)O)C(=O)N[C@@H](CO)C(=O)N[C@H](C(=O)N[C@@H](C)C(=O)N[C@H](C(=O)N[C@@H](CC(C)C)C(=O)NCC(=O)N[C@@H](CCCCN)C(=O)N[C@@H](CC(C)C)C(=O)N[C@@H](CO)C(=O)N[C@@H](CCC(N)=O)C(=O)N[C@@H](CCC(=O)O)C(=O)N[C@@H](CC(C)C)C(=O)N[C@@H](Cc1c[nH]cn1)C(=O)N[C@@H](CCC(=O)O)C(=O)N[C@@H](CC(C)C)C(=O)N[C@@H](CCC(N)=O)C(=O)N[C@H](C(=O)N[C@@H](Cc1ccc(O)cc1)C(=O)N1CCC[C@H]1C(=O)N1CCC[C@H]1C(=O)N[C@H](C(=O)N[C@@H](CCC(=O)O)C(=O)N[C@H](C(=O)NCC(=O)N[C@@H](CO)C(=O)NCC(=O)N[C@H](C(=O)N[C@@H](Cc1ccc(O)cc1)C(N)=O)[C@@H](C)O)[C@@H](C)O)[C@@H](C)O)[C@@H](C)O)C(C)C)[C@@H](C)O

IC50 [1]: 44 pM
IC50 [2]: 146 pM
B7: [N-terminal(C20 diacid-gGlu-OEG), des1, 30S, 31G]mimylin (peptide)
peptide: {C20 diacid-γGlu-AEEA}-ASELSTAALGRLSAELHELATLPRTETGSGSP-NH2

IC50 [1]: 65 pM
IC50 [2]: 1300 pM
B9: [des1, 16K(C20 diacid-gGlu), 30S, 31G]mimylin (peptide)
peptide: ASELSTAALGRLSAK([γGlu-C20 diacid])LHELATLPRTETGSGSP-NH2
modifications: N-terminus assumed
SMILES: CC(C)C[C@H](NC(=O)[C@H](C)NC(=O)[C@H](C)NC(=O)[C@@H](NC(=O)[C@H](CO)NC(=O)[C@H](CC(C)C)NC(=O)[C@H](CCC(=O)O)NC(=O)[C@H](CO)NC(=O)[C@H](C)N)[C@@H](C)O)C(=O)NCC(=O)N[C@@H](CCCNC(=N)N)C(=O)N[C@@H](CC(C)C)C(=O)N[C@@H](CO)C(=O)N[C@@H](C)C(=O)N[C@@H](CCCCNC(=O)CC[C@H](NC(=O)CCCCCCCCCCCCCCCCCCC(=O)O)C(=O)O)C(=O)N[C@@H](CC(C)C)C(=O)N[C@@H](Cc1c[nH]cn1)C(=O)N[C@@H](CCC(=O)O)C(=O)N[C@@H](CC(C)C)C(=O)N[C@@H](C)C(=O)N[C@H](C(=O)N[C@@H](CC(C)C)C(=O)N1CCC[C@H]1C(=O)N[C@@H](CCCNC(=N)N)C(=O)N[C@H](C(=O)N[C@@H](CCC(=O)O)C(=O)N[C@H](C(=O)NCC(=O)N[C@@H](CO)C(=O)NCC(=O)N[C@@H](CO)C(=O)N1CCC[C@H]1C(N)=O)[C@@H](C)O)[C@@H](C)O)[C@@H](C)O

From patent US20160272683A1 (Novo Nordisk, published 2016)
